Experimental data taken from US20100261620A1 (published 2010).
Where a chain is given by its changes, count along the chain named. Each block holds one binder with its values, some of them ahead of it.

Columns and labels:
IL-13 = IL-13 (Homo sapiens (Human), UniProt P35225 35-146, limits assumed); test: Biacore
[1] = biological target: T1, human CD147 His-tagged N-terminal domain (human, UniProt P35613-2 20-117); test: SPR, CD147 coupled to the surface
T1 construct: also called N-terminal human CD147; EMMPRIN; not shown: His tag
T1 chain: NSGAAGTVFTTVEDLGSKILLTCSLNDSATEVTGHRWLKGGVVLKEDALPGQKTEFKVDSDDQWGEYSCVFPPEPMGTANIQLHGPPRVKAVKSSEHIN

IL-13, sequence (P35225 35-146 limits assumed): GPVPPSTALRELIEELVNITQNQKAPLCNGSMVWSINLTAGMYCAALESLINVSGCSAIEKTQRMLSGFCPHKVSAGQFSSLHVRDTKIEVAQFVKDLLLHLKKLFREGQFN

- Kd (IL-13): 0.009 nM
- koff (IL-13): 1.2e-05 s⁻¹
- kon (IL-13): 1.28e+06 M⁻¹ s⁻¹
B1: M1286 (antibody, V domains shown)
VH: QVTLKESGPVLVKPTETLTLTCTVSGFSLSTYGSGVGWIRQPPGKALEWLAHIWWDDVKRYNPALKSRLTISKDTSKSQVVLTMTNMDPVDTATYYCARLGSDYDVWFDYWGQGTLVTVSS
VL: EIVLTQSPATLSLSPGERATLSCRASKSISKYLAWYQQKPGQAPRLLIYSGSTLQSGIPARFSGSGSGTDFTLTISSLEPEDFAVYYCQQHDYPYTFGQGTKLEIK

- Kd (IL-13): 0.04 nM
- koff (IL-13): 5.3e-05 s⁻¹
- kon (IL-13): 1.32e+06 M⁻¹ s⁻¹
B2: M442 (antibody, V domains shown)
VH: B1 VH with S34M, L100M
VL: B1 VL with H91Q, Y93G

- Kd (IL-13): 0.024 nM
- koff (IL-13): 2.7e-05 s⁻¹
- kon (IL-13): 1.1e+06 M⁻¹ s⁻¹
B3: M1375 (antibody, V domains shown)
VH: B1 VH with S34Q
VL: B1 VL

- Kd (IL-13): 0.015 nM
- koff (IL-13): 1.8e-05 s⁻¹
- kon (IL-13): 1.2e+06 M⁻¹ s⁻¹
B4: M1295 (antibody, V domains shown)
VH: B1 VH with S34V
VL: B1 VL

- Kd (IL-13): 0.008 nM
- koff (IL-13): 8e-06 s⁻¹
- kon (IL-13): 1.03e+06 M⁻¹ s⁻¹
B5: M460 (anti-IL-13) (antibody, V domains shown)
VH: B1 VH with S34M, L100M
VL: B1 VL

- Kd (IL-13): 0.021 nM
- koff (IL-13): 3.9e-05 s⁻¹
- kon (IL-13): 1.86e+06 M⁻¹ s⁻¹
B6: M480 (antibody, V domains shown)
VH: B1 VH with S34M, L100M
VL: B1 VL with H91Q, Y93S

- Kd [1]: 120 nM
B7: 4A5 Fab (Fab, V domains shown)
VH: EVQLQQSGPELVKPGASVKISCKASGYTFTDYYMNWVKQSHGKSLEWIGGINPNNGGTSYNQKFKGKATLTVDKSSSTAYMELRSLTSEDSAVYYCARNDGYRGYAMDYWGQGTSVTVSS
VL: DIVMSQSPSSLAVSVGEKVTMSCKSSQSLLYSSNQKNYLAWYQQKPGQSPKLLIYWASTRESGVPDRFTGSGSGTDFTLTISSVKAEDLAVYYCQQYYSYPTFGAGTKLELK
notes: mouse variable domains; also called 4A5 chimera; chimeric 4A5 Fab
